Results taken from patent US20070258972A1, “Combination of a Histone Deacetylase Inhibitor with a Death Receptor Ligand” (priority 2003, published 2007).

Tested on: Primary AML cells
Test: Apoptosis of primary AML cells by annexin V staining and flow cytometry
Format: cell-based, human
Settings: for % of Apoptosis: LAQ824 100 nM and/or Apo-2L/TRAIL 100 ng/mL, 24 hours
Excerpt: Jurkat T cell leukemia and SKW6.4 B lymphoblast cells are obtained from American Tissue Culture Collection (Manassas, Va.). HL-60/Bcl-2 cells with ectopic over-expression of Bcl-2 and the control HL-60/Neo cells are created and maintained in culture as previously described. Primary leukemia blasts from six patients with AML in relapse are harvested, as previously described, from the peripheral blood or bone marrow after informed consent, as a part of a protocol study sanctioned by the local Institutional Review Board. The purity of leukemia blasts in the samples prior to culture in LAQ824 and/or Apo-2L/TRAIL was at least 80% or more, as determined by morphologic evaluation after Wright staining.
After drug treatments, cells are resuspended in 100 μL of the staining solution containing annexin-V fluorescein and propidium iodide in a HEPES buffer (Annexin-V-FLUOS Staining Kit, Boehringer-Mannheim, and Indianapolis, Ind.). Following incubation at room temperature for 15 minutes, annexin V positive cells are estimated by flow cytometry, as previously described.

B1: Apo-2L/TRAIL: recombinant human trimeric form of Apo-2L/TRAIL from Genentech, Inc., produced in E. coli (protein, UniProt P50591 1-281, looked up)
Tumor necrosis factor ligand …: MAMMEVQGGPSLGQTCVLIVIFTVLLQSLCVAVTYVYFTNELKQMQDKYSKSGIACFLKEDDSYWDPNDEESMNSPCWQVKWQLRQLVRKMILRTSEETISTVQEKQQNISPLVRERGPQRVAAHITGTRGRSNTLSSPNSKNEKALGRKINSWESSRSGHSFLSNLHLRNGELVIHEKGFYYIYSQTYFRFQEEIKENTKNDKQMVQYIYKYTSYPDPILLMKSARNSCWSKDAEYGLYSIYQGGIFELKENDRIFVSVTNEHLIDMDHEASFFGAFLVG
modifications: trimeric
notes: recombinant human trimeric form of Apo-2L/TRAIL from Genentech, Inc., produced in E. coli
Patient 1 primary AML cells, control 7.0
  % of Apoptosis: 7.6%
Patient 2 primary AML cells, control 12.0
  % of Apoptosis: 14.0%
Patient 3 primary AML cells, control 8.0
  % of Apoptosis: 8.6%
Patient 4 primary AML cells, control 10.0
  % of Apoptosis: 11.0%
Patient 5 primary AML cells, control 6.0
  % of Apoptosis: 6.8%
Patient 6 primary AML cells, control 7.0
  % of Apoptosis: 8.1%
Six samples, relapsed AML, Apo-2L/TRAIL 100 ng/mL, LAQ824 100 nM
  apoptosis of primary AML blasts (in words): resistant
